{"source": "patent US9968687B2", "about": "“Anti-DLL3 antibody drug conjugates” (AbbVie Stemcentrx LLC, priority 2013, dated 2018)", "molecules": {"B1": {"name": "SC16.23: murine anti-DLL3 monoclonal antibody, sequences in FIGS. 3A and 3B (antibody, V domains shown)", "VL": "QIVLTQSPAIMSASPGEKVTLTCSASSSVSSRYLYWYQQKPGSSPKLWIYSTSNLASGVPARFSGSGSGTSYSLIISSMEAEDAASYFCHQWSNYPLTFGAGTKLELK", "VH": "QVTLKESGPGILQPSQTLSLTCSFSGFSLSTSNTGIGWIRQPSGTGLEWLAHIWWNDDKYYNPSLKSRLTISKETSNNQVFLKITNVDTADTASYFCVQIGRDYSNYAWYFDVWGAGTTVTVSS"}}, "target": "T1, recombinant human DLL3-Flag (Homo sapiens, UniProt Q9NYJ7)", "T1 construct": "Based on the apparent size of the DLL3 antigen (where the ECD is approximately 56 kD); Flag; purchased Adipogen International", "T1 sequence (Q9NYJ7 27-492 limits assumed)": "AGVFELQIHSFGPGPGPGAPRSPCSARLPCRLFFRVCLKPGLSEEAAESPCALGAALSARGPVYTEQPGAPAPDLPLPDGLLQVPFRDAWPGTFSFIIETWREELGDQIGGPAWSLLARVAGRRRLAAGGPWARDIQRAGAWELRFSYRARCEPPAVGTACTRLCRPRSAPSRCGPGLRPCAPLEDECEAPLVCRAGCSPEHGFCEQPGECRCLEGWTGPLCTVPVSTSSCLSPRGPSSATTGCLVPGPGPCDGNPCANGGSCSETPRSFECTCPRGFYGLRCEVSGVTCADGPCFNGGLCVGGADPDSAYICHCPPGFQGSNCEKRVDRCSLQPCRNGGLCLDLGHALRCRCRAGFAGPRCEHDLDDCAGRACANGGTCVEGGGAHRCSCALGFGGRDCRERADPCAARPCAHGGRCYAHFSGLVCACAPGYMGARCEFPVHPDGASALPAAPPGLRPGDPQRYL", "experiment": "Antibody binning by competition on ForteBio RED", "type": "binding", "excerpt": "As to antibody binning, a ForteBio RED was used per manufacturer's instructions to identify competing antibodies that bound to the same or different bins. Briefly, a reference antibody (Ab1) was captured onto an anti-mouse capture chip, a high concentration of non-binding antibody was then used to block the chip and a baseline was collected. Monomeric, recombinant human DLL3-Flag (Adipogen International) was then captured by the specific antibody (Ab1) and the tip was dipped into a well with either the same antibody (Ab1) as a control or into a well with a different test antibody (Ab2). […] If no further binding occurred, as determined by comparing binding levels with the control Ab1, then Ab2 was determined to be in the same bin. As known in the art this process can be expanded to screen large libraries of unique antibodies using a full row of antibodies representing unique bins in a 96-well plate. […] Based on the apparent size of the DLL3 antigen (where the ECD is approximately 56 kD) and the resolution of the binning methodology employed, it is believed that the nine identified bins represent the majority of the bins present on the DLL3 extracellular antigen.", "data": [{"molecule": "B1", "values": [{"measurement": "bin relation to other antibodies", "value": "found not to bin with SC16.34 or SC16.56"}]}]}
